Consider 2 molecules from doi:10.1101/2022.09.06.506802 (bioRxiv, 2022).

The target in assay [1] is Human Talin 1 R1R2-17b (residues 482-786 + additional 17 residues) (human) (UniProt Q9Y490). In words: SEC.
Assay [2] addresses Human Talin 1 R1R2-WT (residues 482-786) (human, UniProt Q9Y490 482-786). In words: NMR titration.

Several values for one entry are separate records, joined by “and”; a condition that tells them apart may be missing. Equal values may be shown once.

For “Vinculin domain 1 (VD1) (from UniProt P18206 1-258) (domain or fragment)”, the stoichiometry N (vinculin per talin) in assay [1] was 2 and 3. Turning to SEDIDQMFSTLLGEMDLLTQSLGVDTC [RIAM peptide (residues 4-30)], the binding result in assay [2] is recorded as “binds”.
